Experiment [1] has as its target T1, recombinant human CD43 extracellular portion (aa 20-253) produced in E. coli (human, UniProt P16150 20-253).
T1 construct: Made in E. coli, without mammalian glycosylation; No tags are stated; also called aglycosylated extracellular portion of CD43; unglycosylated-CD43 protein
T1 sequence: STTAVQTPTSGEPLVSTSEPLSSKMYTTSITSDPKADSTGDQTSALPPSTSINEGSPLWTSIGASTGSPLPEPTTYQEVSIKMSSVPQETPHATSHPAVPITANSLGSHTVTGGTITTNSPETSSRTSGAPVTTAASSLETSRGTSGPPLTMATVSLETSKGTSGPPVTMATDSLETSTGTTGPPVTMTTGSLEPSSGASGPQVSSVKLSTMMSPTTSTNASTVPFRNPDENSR
The experiment is described as follows: SPRi (PlexArray HT), antibody printed on the chip, Recombinant Human CD-43 (AA20-253) as analyte at 2.84 to 45.6 nM, 25 C.
Experimental: (§1) Antibodies dissolved in water were manually printed onto the bare gold-coated (thickness 47 nm) PlexArray Nanocapture Sensor Chip (Plexera Bioscience, Seattle, Wash., US) at 40% humidity. Different concentration of the analytes (CD43) were tested for affinity. Each concentration was printed in replicate, and each spot contained 0.2 uL of sample solution. The chip was incubated in 80% humidity at 4° C. for overnight, and rinsed with 10×PBST for 10 min, 1×PBST for 10 min, and deionized water twice for 10 min. The chip was then blocked with 5% (w/v) non-fat milk in water overnight, and washed with 10×PBST for 10 min, lx PBST for 10 min, and deionized water twice for 10 min before being dried under a stream of nitrogen prior to use. SPRi measurements were performed with PlexAray HT (Plexera Bioscience, Seattle, Wash., US). Collimated light (660 nm) passes through the coupling prism, reflects off the SPR-active gold surface, and is received by the CCD camera. […] The signal changes after binding and washing (in AU) are recorded as the assay value.
(§2) Selected protein-grafted regions in the SPR images were analyzed, and the average reflectivity variations of the chosen areas were plotted as a function of time. Real-time binding signals were recorded and analyzed by Data Analysis Module (DAM, Plexera Bioscience, Seattle, Wash., US). […]

For experiment [2], the target named is T2, human CD43, endogenous, on primary cells and cell lines that carry the UMG1 epitope (human, UniProt P16150 20-400, native glycosylation of the cell concerned).
T2 construct: also called UMG1 antigen; the target
T2 sequence: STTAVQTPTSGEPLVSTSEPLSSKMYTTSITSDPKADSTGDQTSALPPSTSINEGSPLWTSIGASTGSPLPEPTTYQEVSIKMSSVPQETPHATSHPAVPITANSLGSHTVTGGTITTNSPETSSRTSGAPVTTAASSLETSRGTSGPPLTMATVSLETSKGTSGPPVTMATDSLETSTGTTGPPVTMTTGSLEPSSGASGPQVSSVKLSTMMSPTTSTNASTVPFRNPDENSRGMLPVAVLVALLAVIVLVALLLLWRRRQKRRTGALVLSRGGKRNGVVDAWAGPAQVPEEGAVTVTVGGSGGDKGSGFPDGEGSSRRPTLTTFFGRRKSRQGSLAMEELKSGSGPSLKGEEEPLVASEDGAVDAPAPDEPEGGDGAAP
The experiment in a line: competition flow cytometry on CEM cells against 1 ug/ml h-UMG1-PE. For orientation: In flow cytometry, cells or beads pass a laser one at a time.
Experimental: (§3) Approximately, 500,000 cells were collected and stained for each test. Cell were analyzed and measured with FACS Canto (Becton Dickinson) and analyzed by DIVA software (BD FACSDiva™ software). For each measurement 10,000 events were gated using the DIVA software. Each experiment was performed in triplicate.

Experiment [3] deals with T2, human CD43, endogenous, on primary …. The experiment in a line: competition flow cytometry on HPB-ALL cells against 1 ug/ml h-UMG1-PE.
Experimental: as §3
The target in experiment [4] is T1, recombinant human CD43 extracellular …. The experiment is described as follows: SPRi (PlexArray HT), antibody printed on the chip, CD43 aa 20-253 from E. coli as analyte, 25 C.
Experimental: as §1, §2
For experiment [5], the target named is T3, CD43 #6 (CD43 with deletion of aa 64 to 78), expressed in HEK293T cells (human, UniProt P16150 20-400).
T3 construct: also called CD43 Clone #6; not shown: His tag from the vector pLenti-CMV-(insert)-Histag-GFP-2A-Puro
T3 sequence: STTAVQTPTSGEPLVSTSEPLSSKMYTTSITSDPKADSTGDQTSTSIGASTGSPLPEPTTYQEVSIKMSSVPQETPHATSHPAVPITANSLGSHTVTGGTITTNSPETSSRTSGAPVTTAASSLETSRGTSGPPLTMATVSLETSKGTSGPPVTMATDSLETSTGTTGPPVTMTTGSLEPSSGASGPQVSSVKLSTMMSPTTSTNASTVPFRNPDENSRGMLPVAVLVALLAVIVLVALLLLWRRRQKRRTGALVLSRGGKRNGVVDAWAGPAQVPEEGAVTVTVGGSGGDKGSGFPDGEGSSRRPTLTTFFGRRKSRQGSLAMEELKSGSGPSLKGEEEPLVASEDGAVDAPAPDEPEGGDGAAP
The experiment is described as follows: western blot of lysates of transfected HEK293T cells. For orientation: A western blot detects proteins with antibodies after separation by electrophoresis.

Experiment [6] deals with T4, CD43 #5 (truncated CD43, aa 91-400), expressed in HEK293T cells (human, UniProt P16150 91-400).
T4 construct: also called CD43 Clone #5; not shown: His tag from the vector pLenti-CMV-(insert)-Histag-GFP-2A-Puro
T4 sequence: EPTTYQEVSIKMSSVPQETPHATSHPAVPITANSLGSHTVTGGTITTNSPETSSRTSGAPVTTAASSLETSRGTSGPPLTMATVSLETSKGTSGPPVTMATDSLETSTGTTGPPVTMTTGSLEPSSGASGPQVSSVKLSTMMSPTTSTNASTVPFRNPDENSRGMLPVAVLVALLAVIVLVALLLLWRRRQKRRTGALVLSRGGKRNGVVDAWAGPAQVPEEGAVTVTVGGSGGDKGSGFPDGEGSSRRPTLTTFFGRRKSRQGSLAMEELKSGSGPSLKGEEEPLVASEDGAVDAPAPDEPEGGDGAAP
The experiment is described as above.

Experiment [7] has as its target T3, CD43 #6 (CD43 with deletion of aa 64 to …). The experiment is described as follows: flow cytometry on transfected HEK293T cells, percent h-UMG1-PE positive among GFP positive cells.
Experimental: (§4) Each vector was transiently expressed in HEK293T cells by using Lipofectamine LTX (Thermo Fisher Scientific, MA, USA) according to the manufacturer's protocol. HEK293T cells were maintained at 37° C. and 5% CO₂ in DMEM supplemented with 10% FBS and 1% penicillin/streptomycin (ThermoFisher Scientific, MA, USA). 72 h after transfection, cells were subjected to western blot or flow cytometry (FACS) analysis.
(§5) Samples were acquired by flow cytometry (LSRFortessa™ X-20, BD) and analyzed by DIVA software (BD FACSDiva™ software). A minimum of 20,000 events were gated for each measurement.
The target in experiment [8] is T5, CD43 #8 (CD43 aa 1-400 with T69N), expressed in HEK293T cells (human, UniProt P16150 20-400).
T5 construct: also called CD43 Clone #8; not shown: His tag from the vector pLenti-CMV-(insert)-Histag-GFP-2A-Puro
T5 sequence: T2 sequence with T50N
The experiment in a line: flow cytometry on transfected HEK293T cells, 1 ug/ml h-UMG1-PE, percent positive among GFP positive cells.

Experiment [9] has as its target T6, CD43 #7 (CD43 with deletion of aa 69), expressed in HEK293T cells (human, UniProt P16150 20-400).
T6 construct: also called CD43 Clone #7; not shown: His tag from the vector pLenti-CMV-(insert)-Histag-GFP-2A-Puro
T6 sequence: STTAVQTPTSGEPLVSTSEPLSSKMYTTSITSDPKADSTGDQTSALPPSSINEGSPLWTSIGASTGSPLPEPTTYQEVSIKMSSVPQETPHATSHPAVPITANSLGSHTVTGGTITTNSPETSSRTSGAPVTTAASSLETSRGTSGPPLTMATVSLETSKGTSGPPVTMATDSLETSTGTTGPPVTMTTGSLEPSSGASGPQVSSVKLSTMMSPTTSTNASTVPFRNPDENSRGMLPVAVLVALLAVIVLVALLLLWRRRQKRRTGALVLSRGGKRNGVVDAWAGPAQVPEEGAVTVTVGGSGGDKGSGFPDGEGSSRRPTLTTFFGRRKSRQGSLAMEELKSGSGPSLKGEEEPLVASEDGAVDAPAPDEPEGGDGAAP
Described as above.

Experiment [10] deals with T4, CD43 #5 (truncated CD43, aa 91-400), …. The experiment in a line: flow cytometry on transfected HEK293T cells, percent h-UMG1-PE positive among GFP positive cells.
Experimental: as §4, §5

Where a chain is given by its changes, count along the chain named.

B1: h-UMG1 (humanized UMG1 antibody H3-L4) (antibody, human IgG1, kappa, V domains shown)
VH: EVQLVESGGGLVQPGGSLRLSCVASGFTFSSFGMHWVRQAPGKGLEWVAYISSGSGNFYYVDTVKGRFTISRDNAKNSLYLQMNSLRAEDTAVYYCARSTYYHGSRGAMDYWGQGTLVTVSS
VL: QVVMTQSPAFLSVTPGEKVTITCSASSSVSSMYWYQLKPDQAPKLLIYDTSKMASGVPIRFSGSGSGTDFTFTVSSVEAEDAATYYCQQWSSYPPITFGGGTKVEIKR
notes: The full chains are given as Human Heavy Chain (VH3) and Human Light Chain (VL4); IgG1; also called unconjugated h-UMG1
As to B1, the dissociation rate constant (koff) in experiment [1] was determined as 0.000511 s⁻¹. The kon in experiment [1] came to 5140 M⁻¹ s⁻¹. In addition, the figures for the “IC50 (read off the curve)” value in experiment [2] and in experiment [3] were about 0.04 µg/mL and about 0.4 µg/mL, respectively. Further, the dissociation constant Kd in [4] came to 99.4 nM. The binding result in experiment [5] and in experiment [6] was “no binding (tested: 1:500 dilution)” in each case.

B2: h-UMG1-PE (phycoerythrin-conjugated h-UMG1) (antibody, human IgG1, kappa, V domains shown)
VH: B1 VH
VL: B1 VL
modifications: phycoerythrin conjugate, site not stated
notes: also called h-UMG1-PE conjugated antibody
Regarding B2, the binding result in experiment [7] is “no binding (tested: 1 ug/ml)”; in experiment [8] it was “binds”; in experiment [9], “binds”; in [10], “no binding (tested: 1 ug/ml)”.

By koff is commonly meant the rate constant with which the complex falls apart. For orientation: kon means the rate constant with which the complex forms. For orientation: Kd means the concentration at which binding is half-saturated.

(Values after patent US20200123268A1 (UNIVERSIT DEGLI STUDI MAGNA GRAECIA CATANZARO, published 2020).)
